B1: mRNA-splicing (parent)
chain: AGUUGCUGCUGGGAGCUCCAGCACAGUGAAAUGGACAGAAGGGCAGAGCAA

Variants of: B1
Experiment: exon inclusion enrichment index; higher = more inclusion; WT1 exon 5 minigene, HEK293

First: AGUUAGGGAUGGGAGCUCCAGCACACAGAAAUGGACAGAAGGGCAGAGCAA [G5A C6G U7G C9A G26C U27A]
Second: AGUUAGGGAUGGGAGCUCCAGCACACGGAAAUGGACAGAAGGGCAGAGCAA [G5A C6G U7G C9A G26C U27G]
The “exon inclusion enrichment index” value of the first is lower: 0.00255 for the first, 0.0205 for the second.

Compared with AGUUAGGGAUGGGAGCUCCAGCACACCGAAAUGGACAGAAGGGCAGAGCAA [G5A C6G U7G C9A G26C U27C], AGUUAGGGAUGGGAGCUCCAGCACAGUGAAAUGGACAGAAGCUCAGAGCAA [G5A C6G U7G C9A G42C G43U] is lower in “exon inclusion enrichment index” value: 0.0114 for the first, 0.00749 for the second.

First: AGUUAGGGAUGGGAGCUCCAGCACAGUGAAAUGGACAGAAGCCCAGAGCAA [G5A C6G U7G C9A G42C G43C]
Second: AGUUAGGGAUGGGAGCUCCAGCACAGUGAAAUGGACAGAAGCACAGAGCAA [G5A C6G U7G C9A G42C G43A]
The “exon inclusion enrichment index” value of the first is lower: 0.0141 for the first, 0.0348 for the second.

Going from AGUUAGGGAUGGGAGCUCCAGCACAGUGAAAUGGACAGAAGGAAAGAGCAA [G5A C6G U7G C9A G43A C44A] to AGUUAGGGAUGGGAGCUCCAGCACAGUGAAAUGGACAGAAGGAUAGAGCAA [G5A C6G U7G C9A G43A C44U], the “exon inclusion enrichment index” value falls from 0.0069 to 0.00188.

First: AGUUAGGGAUGGGAGCUCCAGCACAGUGAAAUGGACAGAAGGAGAGAGCAA [G5A C6G U7G C9A G43A C44G]
Second: AGUUAGGGAUGGGAGCUCCAGCACAGUUGAAUGGACAGAAGGGCAGAGCAA [G5A C6G U7G C9A G28U A29G]
The “exon inclusion enrichment index” value of the first is higher: 0.0259 for the first, 0.00238 for the second.

First: AGUUAGGGAUGGGAGCUCCAGCACAGUUCAAUGGACAGAAGGGCAGAGCAA [G5A C6G U7G C9A G28U A29C]
Second: AGUUAGGGAUGGGAGCUCCAGCACAGUUUAAUGGACAGAAGGGCAGAGCAA [G5A C6G U7G C9A G28U A29U]
The “exon inclusion enrichment index” value of the first is higher: 0.000797 for the first, 0.000755 for the second.

First: AGUUAGGGAUGGGAGCUCCAGCACAGUGAAAUGGACAGAAACGCAGAGCAA [G5A C6G U7G C9A G41A G42C]
Second: AGUUAGGGAUGGGAGCUCCAGCACAGUGAAAUGGACAGAAAAGCAGAGCAA [G5A C6G U7G C9A G41A G42A]
The “exon inclusion enrichment index” value of the first is higher: 0.0072 for the first, 0.0013 for the second.

Going from AGUUAGGGAUGGGAGCUCCAGCACAGUGAAAUGGACAGAAAUGCAGAGCAA [G5A C6G U7G C9A G41A G42U] to AGUUAGGGAUGGGAGCUCCAGCACAGUGAAAUGGACAGAAGUCCAGAGCAA [G5A C6G U7G C9A G42U G43C], the “exon inclusion enrichment index” value rises from 0.00291 to 0.0126.

Compared with AGUUAGGGAUGGGAGCUCCAGCACAGUGAAAUGGACAGAAGUUCAGAGCAA [G5A C6G U7G C9A G42U G43U], AGUUAGGGAUGGGAGCUCCAGCACAGUGAAAUGGACAGAAGUACAGAGCAA [G5A C6G U7G C9A G42U G43A] is lower in “exon inclusion enrichment index” value: 0.00686 for the first, 0.00514 for the second.

Compared with AGUUAGGGAUGGGAGCUCCAGCACAGUGAAAUACACAGAAGGGCAGAGCAA [G5A C6G U7G C9A G33A G34C], AGUUAGGGAUGGGAGCUCCAGCACAGUGAAAUAAACAGAAGGGCAGAGCAA [G5A C6G U7G C9A G33A G34A] is higher in “exon inclusion enrichment index” value: 0.000823 for the first, 0.000844 for the second.

Going from AGUUAGGGAUGGGAGCUCCAGCACAGUGAAAUAUACAGAAGGGCAGAGCAA [G5A C6G U7G C9A G33A G34U] to AGUUAGGGAUGGGAGCUCCAUGACAGUGAAAUGGACAGAAGGGCAGAGCAA [G5A C6G U7G C9A G21U C22G], the “exon inclusion enrichment index” value falls from 0.000917 to 0.000869.

Going from AGUUAGGGAUGGGAGCUCCAUUACAGUGAAAUGGACAGAAGGGCAGAGCAA [G5A C6G U7G C9A G21U C22U] to AGUUAGGGAUGGGAGCUCCAUAACAGUGAAAUGGACAGAAGGGCAGAGCAA [G5A C6G U7G C9A G21U C22A], the “exon inclusion enrichment index” value falls from 0.00236 to 0.00074.

Compared with AGUUAGGGAUGGGAGCUCCAGCACAUUGAAAUGGACAGAAGGGCAGAGCAA [G5A C6G U7G C9A G26U], AGUUAGGGAUGGGAGCUCCAGCACAAUGAAAUGGACAGAAGGGCAGAGCAA [G5A C6G U7G C9A G26A] is higher in “exon inclusion enrichment index” value: 0.00112 for the first, 0.00477 for the second.

First: AGUUAGGGAUGGGAGCUCCAGCACACUGAAAUGGACAGAAGGGCAGAGCAA [G5A C6G U7G C9A G26C]
Second: AGUUAGGGAUGGGAGCUCCAGCACAUCGAAAUGGACAGAAGGGCAGAGCAA [G5A C6G U7G C9A G26U U27C]
The “exon inclusion enrichment index” value of the first is lower: 0.00298 for the first, 0.0253 for the second.

Compared with AGUUAGGGAUGGGAGCUCCAGCACAUGGAAAUGGACAGAAGGGCAGAGCAA [G5A C6G U7G C9A G26U U27G], AGUUAGGGAUGGGAGCUCCAGCACAUAGAAAUGGACAGAAGGGCAGAGCAA [G5A C6G U7G C9A G26U U27A] is lower in “exon inclusion enrichment index” value: 0.00474 for the first, 0.00104 for the second.

Compared with AGUUAGGGAUGGGAGCUCCAGCACAGUGAAAUUAACAGAAGGGCAGAGCAA [G5A C6G U7G C9A G33U G34A], AGUUAGGGAUGGGAGCUCCAGCACAGUGAAAUUCACAGAAGGGCAGAGCAA [G5A C6G U7G C9A G33U G34C] is higher in “exon inclusion enrichment index” value: 0.000839 for the first, 0.00131 for the second.

Compared with AGUUAGGGAUGGGAGCUCCAGCACAGUGAAAUUUACAGAAGGGCAGAGCAA [G5A C6G U7G C9A G33U G34U], AGUUAGGGAUGGGAGCUCCAGCACAGUGAAAUGGACAUUAGGGCAGAGCAA [G5A C6G U7G C9A G38U A39U] is lower in “exon inclusion enrichment index” value: 0.000939 for the first, 0.000926 for the second.

Going from AGUUAGGGAUGGGAGCUCCAGCACAGUGAAAUGGACAUGAGGGCAGAGCAA [G5A C6G U7G C9A G38U A39G] to AGUUAGGGAUGGGAGCUCCAGCACAGUGAAAUGGACAUCAGGGCAGAGCAA [G5A C6G U7G C9A G38U A39C], the “exon inclusion enrichment index” value falls from 0.00105 to 0.000723.

First: AGUUAGGGAUGGGAGCUCCAGCACAGUGAAAUGUACAGAAGGGCAGAGCAA [G5A C6G U7G C9A G34U]
Second: AGUUAGGGAUGGGAGCUCCAGCACAGUGAAAUGAACAGAAGGGCAGAGCAA [G5A C6G U7G C9A G34A]
The “exon inclusion enrichment index” value of the first is lower: 0.000859 for the first, 0.00215 for the second.

Going from AGUUAGGGAUGGGAGCUCCAGCACAGUGAAAUGCACAGAAGGGCAGAGCAA [G5A C6G U7G C9A G34C] to AGUUAGGGAUGGGAGCUCCAGCACAGUGAAAUGCGCAGAAGGGCAGAGCAA [G5A C6G U7G C9A G34C A35G], the “exon inclusion enrichment index” value rises from 0.000973 to 0.00232.

First: AGUUAGGGAUGGGAGCUCCAGCACAGUGAAAUGCCCAGAAGGGCAGAGCAA [G5A C6G U7G C9A G34C A35C]
Second: AGUUAGGGAUGGGAGCUCCAGCACAGUGAAAUGCUCAGAAGGGCAGAGCAA [G5A C6G U7G C9A G34C A35U]
The “exon inclusion enrichment index” value of the first is higher: 0.00219 for the first, 0.00103 for the second.

Going from AGUUAGGGAUGGGAGCUCCAGCACAGUGAAAUGGACAGAAGUGCAGAGCAA [G5A C6G U7G C9A G42U] to AGUUAGGGAUGGGAGCUCCAGCACAGUGAAAUGGACAGAAGCGCAGAGCAA [G5A C6G U7G C9A G42C], the “exon inclusion enrichment index” value falls from 0.00622 to 0.0041.

Compared with AGUUAGGGAUGGGAGCUCCAGCACAGUGAAAUGGACAGAAGAGCAGAGCAA [G5A C6G U7G C9A G42A], AGUUAGGGAUGGGAUUUCCAGCACAGUGAAAUGGACAGAAGGGCAGAGCAA [G5A C6G U7G C9A G15U C16U] is lower in “exon inclusion enrichment index” value: 0.025 for the first, 0.000743 for the second.

Compared with AGUUAGGGAUGGGAGCUCCAGCACAGUAUAAUGGACAGAAGGGCAGAGCAA [G5A C6G U7G C9A G28A A29U], AGUUAGGGAUGGGAGCUCCAGCACAGUAGAAUGGACAGAAGGGCAGAGCAA [G5A C6G U7G C9A G28A A29G] is lower in “exon inclusion enrichment index” value: 0.000814 for the first, 0.000786 for the second.

Compared with AGUUAGGGAUGGGAGCUCCAGCACAGUACAAUGGACAGAAGGGCAGAGCAA [G5A C6G U7G C9A G28A A29C], AGUUAGGGAUGGGAGCUCCAGCACAGUGAAAUGGACACUAGGGCAGAGCAA [G5A C6G U7G C9A G38C A39U] is lower in “exon inclusion enrichment index” value: 0.00171 for the first, 0.000965 for the second.

In the case of AGUUAGGGAUGGGAGCUCCAGCACAGUGAAAUGGACACCAGGGCAGAGCAA [G5A C6G U7G C9A G38C A39C], the “exon inclusion enrichment index” value is reported as 0.00466.

Reference: the RNAGym collection of RNA variant scans (doi:10.1101/gr.219683.116)
